*1 amine or outer side, *2 acyl side, *3 side chain or, on linkers, in order; H or OH if unused. Bridges are numbered along the chain shown (N, C = ends). Primed or numbered codes have the meaning given here. The star is where a group is joined. PEG3′ = three-unit polyethylene glycol linker; NOTA = O=C(O)CN1CCN(CC(=O)O)CCN(CC(=O)*)CC1; TBMB = c1c(C[*:1])cc(C[*:3])cc1C[*:2]
Target: T1, His-Tagged human CD38 recombinant protein (human) (UniProt P28907)
T1 sequence (P28907 whole entry, looked up): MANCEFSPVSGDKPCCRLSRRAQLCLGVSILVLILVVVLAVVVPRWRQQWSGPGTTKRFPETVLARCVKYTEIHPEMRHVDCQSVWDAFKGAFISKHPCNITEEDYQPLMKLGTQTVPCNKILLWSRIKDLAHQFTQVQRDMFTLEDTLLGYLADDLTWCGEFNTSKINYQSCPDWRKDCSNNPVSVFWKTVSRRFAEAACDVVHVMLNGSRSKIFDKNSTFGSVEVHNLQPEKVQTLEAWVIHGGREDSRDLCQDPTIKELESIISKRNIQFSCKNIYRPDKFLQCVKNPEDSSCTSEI
Assay: SPR

B1: AJ206 (NOTA-conjugated bicyclic peptide) (peptide)
peptide: {NOTA-PEG3′}-ACVPCADFPIWYC-NH2
modifications: linker 2-5-13 via TBMB
- Kd: 19.1 nM
